Assay results as given in US20240254227A1 (Alector, published 2024).
Residue numbers refer to the chain shown, from its start.

T1: human CD300LB on primary human monocytes (human, UniProt A8K4G0 18-201)
T1 construct: Endogenous protein on primary cells; that the target is CD300LB is inferred from the antibodies being anti-CD300LB antibodies; also called Monocyte donor 1281; Monocyte donor 1282
T1 sequence: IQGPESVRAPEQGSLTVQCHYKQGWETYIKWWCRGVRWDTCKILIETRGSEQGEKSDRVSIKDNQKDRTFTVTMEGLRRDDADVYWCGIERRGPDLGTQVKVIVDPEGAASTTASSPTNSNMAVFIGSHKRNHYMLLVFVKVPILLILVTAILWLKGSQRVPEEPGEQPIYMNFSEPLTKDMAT

T2: human CD300E-Fc (human)
T2 construct: hIgG1-Fc fusion; the entry is the whole fusion chain
T2 chain: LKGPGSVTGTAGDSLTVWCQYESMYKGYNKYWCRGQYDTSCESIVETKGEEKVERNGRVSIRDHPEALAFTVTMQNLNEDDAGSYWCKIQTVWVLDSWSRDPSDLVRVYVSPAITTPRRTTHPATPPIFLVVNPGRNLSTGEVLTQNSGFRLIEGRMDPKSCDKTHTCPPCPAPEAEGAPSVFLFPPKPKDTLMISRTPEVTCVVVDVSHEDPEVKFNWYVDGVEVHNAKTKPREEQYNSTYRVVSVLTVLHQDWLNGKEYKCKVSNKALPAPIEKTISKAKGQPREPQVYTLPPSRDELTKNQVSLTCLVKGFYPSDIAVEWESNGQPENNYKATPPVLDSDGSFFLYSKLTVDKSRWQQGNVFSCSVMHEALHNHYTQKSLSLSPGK

T3: recombinant human CD300LB overexpressed on Jurkat cells (human, UniProt A8K4G0 18-201)
T3 construct: also called huCD300LB; huCD300LB-expressing Jurkat cells
T3 sequence: T1 sequence

T4: murine CD300LB stably expressed on Jurkat cells (mouse, UniProt Q3U497 18-209)
T4 construct: also called muCD300LB; mouse CD300LB
T4 sequence: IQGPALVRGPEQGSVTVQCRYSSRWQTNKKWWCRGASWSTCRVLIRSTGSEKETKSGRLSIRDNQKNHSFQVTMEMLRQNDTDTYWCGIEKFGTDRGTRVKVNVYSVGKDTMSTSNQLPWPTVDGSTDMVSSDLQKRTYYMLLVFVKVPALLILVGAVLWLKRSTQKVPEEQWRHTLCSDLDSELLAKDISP

B1: anti-CD300LB antibody CD-07 (antibody, V domains shown)
VH: QVQLVQSGAEVKKPGASVKVSCKASGYTFTNYRMHWVRQAPGQGLEWMGWINPNSGGTIYAQKFQGRVTMTRDTSTSTVYMELSSLRSEDTAVYYCARDLDYWGQGTLVTVSS
VL: DIQMTQSPSSLSASVGDRVTITCQASQDISNYLNWYQQKPGKAPKLLIYGASSLQSGVPSRFSGSGSGTDFTLTISSLQPEDFATYYCQQSYSTPWTFGPGTKVEIK
B2: anti-CD300LB antibody CD-05 (antibody, V domains shown)
VH: QVQLVQSGAEVKKPGASVKVSCKASGYTFSRYYINWVRQAPGQGLEWMGWINPNSGGTNYAQKFQGRVTMTRDTSTSTVYMELSSLRSEDTAVYYCTTDQLRFGKTGPYYGMDVWGQGTTVTVSS
VL: B1 VL with Q24R, D28N, S30G, N31T, G50A, T94D, P95T, W96L, P100G
B3: anti-CD300LB antibody CD-01 (antibody, V domains shown)
VH: RVQLQQSGAELVRPGASVTLSCKASGFTFTDFEMHWVKKTPVHGLEWIGAIDPESGNTAYNQKFRGKATLTADKSSSTAYMELRYLTSEDSAVYYCTPLISGADYWGQGTTLTVSS
VL: DVVMTQSPLSLPVSLGDQASISCRSSQSLVHSDGNTYLYWYLQKPGQSPKLLIYKVSNRFSGVPDRFSGSGSGTDFTFKISRVGAEDLGVYFCSQSTHVPWTFGGGTKLEII
B4: anti-CD300LB antibody CD-02 (antibody, V domains shown)
VH: QVQLQQPGAELVRPGSSVKLSCQASGYTFTNYWMHWVRQRPIQGLEWIGNIDPSDSETHYNQKFKDRATLTVDKSSSTAYMQLSSLTSEDSAVYYCARSGVYDDEGGDYWGQGTTLTVSS
VL: ENVLTQSPAIMSASPGEKVTMTCSASSSVSYIHWYQQKSSTSPKLWIYDTSKLASGVPGRFSGSGSGNSYSLTISSMETEDVATYYCFQGSGYPLTFGAGTKLELK
B5: anti-CD300LB antibody CD-06 (antibody, V domains shown)
VH: QVQLVQSGAEVKKPGASVKVSCKASGYTFTTYAVHWVRQAPGQGLEWMGIVNPNSGGTNYAQKFQGRVTMTRDTSTSTVYMELSSLRSEDTAVYYCARDIVPMNNFYNYYYGMDVWGQGTTVTVSS
VL: B1 VL with Q24R, D28S, N31S, G50A, A51T, S53T, S93R, T94I, W96Y, P100Q
B6: anti-CD300LB antibody CD-03 (antibody, V domains shown)
VH: EVQLQQSGPELVKPGASVKISCKASGYTFTDYYINWVRQSHGKSLECIGDINPNNGGTNYNQKFKGKATLTVDRSSNTAYMEFRSLTFDDSALYYCAAEGAYWGQGTLVTVSA
VL: not shown

Tests used:
[1] = target: T1, human CD300LB on primary human monocytes; assay: flow cytometry, primary human monocytes donor 1282, 10 ug/mL antibody, isotype control subtracted
Description: Human monocytes from various donors were isolated from whole blood using RosetteSep Human Monocyte Enrichment Cocktail (Stemcell technologies) and Ficoll centrifugation per manufacturer protocols. After lysing red blood cells with ACK lysing buffer, monocytes were resuspended in complete media (RPMI, 10% FBS, Pen/Strep, L-glutamine, HEPES, non-essential amino acid, Sodium pyruvate). To obtain macrophages from these isolated monocytes, 100 ng/ml human M-CSF and 8% v/v human serum were added to the cells for 5-7 days. Cells were counted on the day of the experiment and plated at 100,000 cells per well in a round-bottom 96 well plate. Cells were incubated with TruStain Fc block and 10 μg/mL antibody for 1 hour on ice before washing with 250 μL ice cold PBS twice. Cells were then incubated with the appropriate APC-conjugated secondary antibodies for 20 minutes in the dark on ice. Finally, cells were washed twice with ice cold FACS buffer and then resuspended in 100 μL FACS buffer containing 1% propidium iodide. Samples were immediately analyzed using a BD FACSCanto flow cytometer. The gMFI was calculated using FlowJo software minus the gMFI of the appropriate isotype control.

human CD300E-Fc = target: T2, human CD300E-Fc; assay: SPR (Carterra LSA), antibody immobilised, Fc fusion at 300 or 600 nM
Description: Binding of mouse anti-CD300LB IgG1 antibodies of the present disclosure to human and murine CD300 orthologs were evaluated by surface plasmon resonance (SPR) using a Carterra LSA instrument (Carterra, Salt Lake City, UT). […] A HC200M sensor chip (Carterra) was activated using the single channel flow cell with a 7-minute injection of a 1:1:1 mixture of 100 mM MES pH 5.5, 100 mM sulfo-NHS, 400 mM EDC (all reconstituted in MES pH 5.5; 100 μL of each mixed in vial immediately before running assay). After switching to the multi-channel array flow cell, the antibodies were injected over the activated chip in a 96-spot array for 10 minutes. The remaining unconjugated active groups on the chip were then blocked by injecting 1M Ethanolamine pH 8.5 (Carterra) for 7 minutes using the single channel flow cell. After priming with running buffer (HBS-TE, Carterra) with 0.5 mg/ml BSA (Sigma), the immobilized anti-CD300LB antibodies were tested for their ability to bind human and mouse recombinant CD300LB extracellular domains. Human CD300 family members and mouse CD300A were hIgG1-Fc fusions, while mouse CD300LB, mouse CD300C, mouse CD300D, and mouse CD300E were mouse IgG2a-Fc fusions (R&D Systems). Binding was assessed by injecting each analyte over the entire antibody array using the single channel flow cell. CD300 analytes were diluted to 300 nM or 600 nM in running buffer and injected in series without regeneration. Two or three buffer blanks were run between each mouse or human ortholog, respectively. Data were processed and analyzed using NextGenKIT high-throughput kinetics analysis software (Carterra).
Results of anti-CD300LB antibody binding to human CD300 family members is provided below in Table 7.

[2] = target: T3, recombinant human CD300LB overexpressed …; assay: flow cytometry, geometric mean (APC-A), Jurkat cells overexpressing huCD300LB
Description: Purified anti-CD300LB antibodies of the present disclosure were evaluated for their binding affinity to either Jurkat cells overexpressing recombinant huCD300LB or BaF/3 cells overexpressing recombinant muCD300LB. Binding of anti-CD300LB antibodies to the cells was determined as follows. Cells were harvested, washed, and labeled with propidium iodide for viability discrimination. After washing the cells with PBS, 1×10⁵ cells were aliquoted per well in 96-well U-bottom plates and incubated with 100 μL of purified anti-CD300LB antibody at various concentrations in FACS buffer (PBS+2% FBS). After this primary incubation, the supernatant was removed via centrifugation, the cells washed twice with 150 μL of ice-cold FACS buffer, and then incubated with the appropriate secondary antibody on ice for 30 minutes. Following the secondary antibody incubation, the cells were again washed twice with ice-cold FACS buffer and resuspended in a final volume of 200 L FACS buffer. Flow cytometry analysis was then performed using the FACSCanto system (BD Biosciences).
To determine affinity, antibodies at increasing concentrations were used to stain Jurkat cells overexpressing huCD300LB and geometric MFI values measured by the flow cytometer were analyzed on Prism (Graphpad) software.

[3] = target: T4, murine CD300LB stably expressed on …; assay: flow cytometry, stable Jurkat cells

Row | Binder | gMFI [1] [gMFI] | SPR binding (control subtracted) (human CD300E-Fc) | EC50 (read off the curve) [2] [µM] | binding result [3]
1 | B1 | 468 | – | – | –
2 | B2 | 1560 | 0.195 | ~0.02 | –
3 | B3 | – | -0.105 | – | –
4 | B4 | – | 0.62 | – | no binding (tested: 10 ug/mL)
5 | B5 | 3440 | – | – | –
6 | B6 | – | 0.18 | – | –
